Reference: PMC10695638

Molecular target: activated complement component C3 (C3b) (UniProt P01024)
Assay: SPR

Factor B (natural protein)
response (RU), median, C3b-chip 2: 17 RU
